± gives the uncertainty stated by the source.
Test: self-splicing fitness, log relative to wild type (ln ratio); higher = more splicing; Tetrahymena group I intron in knt gene, E. coli kanamycin selection, DiMSum; sequences stand for … in CUCUCU…GGAGGGAAAAGUUAUCAGGCAUGCACCUGGUAGCUAGUCUUUAAACCAAUAGAUUGCAUCGGUUUAAAAGGCAAGACCGUCAAAUUGCGGGAAAGGGGUCAACAGCCGUUCAGUACCAAGUCUCAGGGGAAACUUUGAGAUGGCCUUGCAAAGGGUAUGGUAAUAAGCUGACGGACAUGGUCCUAACCACGCAGCCAAGUCCUAAGUCAACAGAUCUUCUGUUGAUAUGGAUGCAGUUCACAGACUAAAUGUCGGUCGGGGAAGAUGUAUUCUUCUCAUAAGAUAUAGUCGGACCUCUCCUUAAUGGGAGCUAGCGGAUGAAGUGAUGCAACACUGGAGCCGCUGGGAACUAAUUUGUAUGCGAAAGUAUAUUGAUUAGUUUUGGAGUACUCGUGGUCG
Summary of the method: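 Colonies from six replicate transformations of E. coli BL21(DE3) were pooled and amplicon-sequenced on an Illumina HiSeq 2500. The library placed an intron with all eight P1ex-region nucleotides randomised inside the knt kanamycin-resistance gene on pET-22b(+), and cells grew overnight at 37°C or 30°C on LB agar with or without 25 μg/mL kanamycin (plus 100 μg/mL carbenicillin, 50 μM IPTG, 0.2% rhamnose). Fitness is the DiMSum error-weighted combination of wild-type-normalised replicate fold changes, kanamycin versus none.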

| Sequence | self-splicing fitness (ln) (30 °C) | self-splicing fitness (ln) (37 °C) |
| --- | --- | --- |
| CGUAAGCAAUAUUACGUUUU | -4.1 ± 0.18 | -3.05 ± 0.19 |
| CGUCAGCAAUAUUACGAAGC |  | -2.3 ± 0.5 |
| CGUCAGCAAUAUUACGACCG | -0.855 ± 0.098 | -0.475 ± 0.12 |
| CGUCAGCAAUAUUACGACCU | -0.193 ± 0.13 | 0.326 ± 0.15 |
| CGUCAGCAAUAUUACGACGC |  | -3.2 ± 0.32 |
| CGUCAGCAAUAUUACGAUCA | -0.722 ± 0.096 | 0.228 ± 0.12 |
| CGUCAGCAAUAUUACGCACU | -0.336 ± 0.071 | 0.339 ± 0.079 |
| CGUCAGCAAUAUUACGCCAU | -3.87 ± 0.29 | -2.81 ± 0.3 |
| CGUCAGCAAUAUUACGCUUU | -3.76 ± 0.27 | -1.66 ± 0.17 |
| CGUCAGCAAUAUUACGGAAU | -4.05 ± 0.37 | -2.83 ± 0.21 |
| CGUCAGCAAUAUUACGGAUG | -3.63 ± 0.2 | -1.74 ± 0.14 |
| CGUCAGCAAUAUUACGGCAU | -0.76 ± 0.074 | -0.608 ± 0.081 |
| CGUCAGCAAUAUUACGGGAA | -3.68 ± 0.43 | -1.18 ± 0.18 |
| CGUCAGCAAUAUUACGGGCA | 0.0754 ± 0.085 | 0.572 ± 0.096 |
| CGUCAGCAAUAUUACGUACA | -0.533 ± 0.072 | 0.154 ± 0.087 |
| CGUCAGCAAUAUUACGUAGU | -2.26 ± 0.12 | -1.24 ± 0.13 |
| CGUCAGCAAUAUUACGUAUC | -3.54 ± 0.19 | -2.06 ± 0.19 |
| CGUCAGCAAUAUUACGUCUA | -0.831 ± 0.13 | -0.968 ± 0.17 |
| CGUCAGCAAUAUUACGUGUU | -3.17 ± 0.11 | -0.86 ± 0.099 |
| CGUGAGCAAUAUUACGACAC | -2.5 ± 0.27 |  |
| CGUGAGCAAUAUUACGACCU | -1.34 ± 0.28 | -1.17 ± 0.3 |
| CGUGAGCAAUAUUACGCACC | -1.07 ± 0.23 |  |
| CGUGAGCAAUAUUACGCCGA |  | -1.96 ± 0.41 |
| CGUGAGCAAUAUUACGCCGG | -2.32 ± 0.24 | -2.58 ± 0.39 |
| CGUGAGCAAUAUUACGCCGU |  | -1.1 ± 0.25 |
| CGUGAGCAAUAUUACGGAAC |  | -1.28 ± 0.44 |

| Sequence | self-splicing fitness (ln) (30 °C) | self-splicing fitness (ln) (37 °C) |
| --- | --- | --- |
| CGUGAGCAAUAUUACGGCUA | -1.68 ± 0.14 | -1.12 ± 0.14 |
| CGUGAGCAAUAUUACGGGAG | -3.67 ± 0.24 | -2.52 ± 0.19 |
| CGUGAGCAAUAUUACGGGCG | -2.93 ± 0.46 | -1.63 ± 0.43 |
| CGUGAGCAAUAUUACGGGCU | -1.5 ± 0.18 | -2.67 ± 0.39 |
| CGUGAGCAAUAUUACGGGGA | -3.34 ± 0.4 | -3.62 ± 0.42 |
| CGUGAGCAAUAUUACGGGUU | -3.99 ± 0.46 | -2.65 ± 0.29 |
| CGUGAGCAAUAUUACGUCCC |  | -1.09 ± 0.42 |
| CGUGAGCAAUAUUACGUCCU |  | -1.64 ± 0.32 |
| CGUUAGCAAUAUUACGAACU | -0.929 ± 0.075 | 0.785 ± 0.11 |
| CGUUAGCAAUAUUACGACAC | -2.43 ± 0.21 | -0.891 ± 0.19 |
| CGUUAGCAAUAUUACGACCA | -0.453 ± 0.17 | -0.925 ± 0.2 |
| CGUUAGCAAUAUUACGACGA | -1.36 ± 0.19 | -1.3 ± 0.19 |
| CGUUAGCAAUAUUACGAUGG | -0.465 ± 0.094 | -0.125 ± 0.13 |
| CGUUAGCAAUAUUACGCCAU |  | -1.61 ± 0.2 |
| CGUUAGCAAUAUUACGCCCG | -0.798 ± 0.29 |  |
| CGUUAGCAAUAUUACGCGAG | -2.42 ± 0.29 |  |
| CGUUAGCAAUAUUACGCGGA | -2.82 ± 0.47 | -1.31 ± 0.17 |
| CGUUAGCAAUAUUACGCUUC |  | -2.27 ± 0.36 |
| CGUUAGCAAUAUUACGGACA | -0.317 ± 0.08 | 0.172 ± 0.1 |
| CGUUAGCAAUAUUACGGACG | -4.39 ± 0.36 | -2.23 ± 0.25 |
| CGUUAGCAAUAUUACGGCAG | -0.122 ± 0.1 | 0.3 ± 0.12 |
| CGUUAGCAAUAUUACGGUGU | -3.37 ± 0.19 | -2.29 ± 0.17 |
| CGUUAGCAAUAUUACGUAAA | -2.88 ± 0.22 | -1.88 ± 0.26 |
| CGUUAGCAAUAUUACGUACG | -2.89 ± 0.36 | -2.09 ± 0.5 |
| CGUUAGCAAUAUUACGUCCA | -2.04 ± 0.41 | -1.13 ± 0.48 |
| CGUUAGCAAUAUUACGUCCU | -1.24 ± 0.1 | -0.9 ± 0.15 |
